The values below come from PMC9781609 (Pharmaceutics, 2022).

A short description of one data set: in vivo. The settings on record: male, athymic nude, mouse, total radioactivity. The protocol: All animal procedures were approved by the University of Alabama at Birmingham IACUC, animal protocol number IACUC-22618. Male athymic nude mice (Charles River, Wilmington, MA, USA) were allowed to acclimate for at least 72 h before any procedures were performed. For tumor implantation, mice were subcutaneously injected with 300,000 HT29 cells 3 weeks before imaging. […] Mice were imaged on a GNEXT microPET/CT (Sophie, Springfield, VA, USA). After the last imaging timepoint, mice were euthanized and organs were taken for biodistribution. Organ weights and radioactive counting were collected on a Hidex gamma counter (Lablogic, Clair-Mel City, FL, USA). Images were processed and SUVs were calculated using VivoQuant software (Invicro, Boston, MA, USA).

For data set [1] the following is noted: endogenous peptide; cited from earlier work. The protocol:
Neurotensin receptor imaging has emerged as a promising target for imaging and therapy. The endogenous neurotensin peptide has a short half-life in blood (<6 min), limiting its direct radiolabeling and use. Most developments in neurotensin receptor imaging have been focused on increasing serum stability and improving specificity for NTSR1 [1]. Previously, neurotensin receptor binding peptides have been investigated as imaging and therapeutic agents when radiolabeled with technetium-99m, indium-111, gallium-68, copper-64, actinium-225, and leutetium-177 [10, 11, 12, 13]. Specif ...

For the compound `CC(=O)N[C@@H](CCCCNC(=O)CN1CCN(CC(=O)O)CCN(CC(=O)O)CC1)C(=O)N1CCC[C@H]1C(=O)N(C)[C@@H](CCCNC(=N)N)C(=O)N[C@@H](CCCNC(=N)N)C(=O)N1CCC[C@H]1C(=O)N[C@@H](Cc1ccc(O)cc1)C(=O)N[C@H](C(=O)N[C@@H](CC(C)C)C(=O)O)C(C)(C)C` [[^55Co] Co-NOTA-NT-20.3], in “in vivo” (1 ug, heart SUV), the SUV at 1 h amounted to 0.033 ± 0.002 SUV, the SUV at 4 h is 0.015 ± 0.002 SUV and the SUV at 24 h came to 0.004 ± 0.001 SUV.

As to `CC(=O)N[C@@H](CCCCNC(=O)CN1CCN(CC(=O)O)CCN(CC(=O)O)CC1)C(=O)N1CCC[C@H]1C(=O)N(C)[C@@H](CCCNC(=N)N)C(=O)N[C@@H](CCCNC(=N)N)C(=O)N1CCC[C@H]1C(=O)N[C@@H](Cc1ccc(O)cc1)C(=O)N[C@H](C(=O)N[C@@H](CC(C)C)C(=O)O)C(C)(C)C` [[^64Cu] Cu-NOTA-NT-20.3, metal not drawn], in “in vivo” (liver SUV), the SUV at 1 h was 0.123 ± 0.029 SUV, the SUV at 4 h was 0.178 ± 0.042 SUV and the SUV at 24 h was determined as 0.168 ± 0.056 SUV.

Take “neurotensin peptide: 13-amino-acid peptide which binds to neurotensin receptors 1–3”: in data set [1], the half-life in blood is given as less than 6 min.
